Primed or numbered codes have the meaning given here. Ends that are not written are not given here. Biotin′ = not defined here

First the molecules themselves.
T1: Peptide 15 with C-terminal biotin (Example 13) (not fully specified; cysteine pairing not given here)
T1 peptide: GGPCNQVECHHQFT-{Biotin′}

B1: Peptide 20 (peptide)
peptide: QLFYPSTYHIID
modifications: also: biotinylated
notes: chemically synthesized biotinylated peptide
B2: Peptide 23 (peptide)
peptide: GGHCVDMVDFYQQTCQ
modifications: cysteine pairing not given here; also: biotinylated
notes: Chemically synthesized biotinylated peptide; also called 23 (Control)
B3: Peptide 22 (peptide)
peptide: GGMCHELFYSNLNWCQ
modifications: cysteine pairing not given here; also: biotinylated
notes: as for B1
B4: Peptide 24 (peptide)
peptide: GGCHNKSGLFYHYC
modifications: cysteine pairing not given here; also: biotinylated
notes: as for B1
B5: Peptide 29 (peptide)
peptide: GGLCSTFYEPQVDICY
modifications: cysteine pairing not given here; also: biotinylated
notes: as for B1
B6: anti-mouse CTLA-4 (clone 9D9) Fab fragment (Fab, V domains shown)
VH: EAKLQESGPVLVKPGASVKMSCKASGYTFTDYYMNWVKQSHGKSLEWIGVINPYNGDTSYNQKFKGKATLTVDKSSSTAYMELNSLTSEDSAVYYCARYYGSWFAYWGQGTLITVST
VL: DIVMTQTTLSLPVSLGDQASISCRSSQSIVHSNGNTYLEWYLQKPGQSPKLLIYKVSNRFSGVPDRFSGSGSGTDFTLKISRVEAEDLGVYYCFQGSHVPYTFGGGTKLEIKR
notes: Monovalent Fab fragment of 9D9; also called mCTLA-4 Fab; a-mCTLA-4 Fab
B7: Peptide 19 (peptide)
peptide: GGCQIHDPHTWHLC
B8: Peptide 16 (peptide)
peptide: GGCPSLHPQWIHVC

For the first assay, the target named is T2, PD-L1 antibody.
T2 construct: also called anti-PD-L1
Briefly: dissociation ELISA: PD-L1 antibody dilution series on immobilised biotinylated peptide. (An ELISA detects its analyte on a solid surface through an enzyme-linked reagent.)
With B1, the “pH 5.4: pH 7.2 EC 50 ratio” value came to 6.7 and the “pH 6.0: pH 7.2 EC 50 ratio” value worked out at 1.7.

For B2, the “pH 5.4: pH 7.2 EC 50 ratio” value was found to be 12.9 and the “pH 6.0: pH 7.2 EC 50 ratio” value was found to be 4.3.

For B3, the “pH 5.4: pH 7.2 EC 50 ratio” value is 7.8 and the “pH 6.0: pH 7.2 EC 50 ratio” value was found to be 1.5.

With B4, the “pH 5.4: pH 7.2 EC 50 ratio” value amounted to 6.6 and the “pH 6.0: pH 7.2 EC 50 ratio” value was 2.8.

For the molecule B5, the “pH 5.4: pH 7.2 EC 50 ratio” value worked out at 6.5 and the “pH 6.0: pH 7.2 EC 50 ratio” value came out at 2.1.

A further assay addresses T1, Peptide 15 with C-terminal biotin …. Briefly: ELISA, biotinylated Peptide 15 on Neutravidin, Fab titrated at pH 7.4 (Example 13).
Method: After washing in PBS-T, mCTLA-4 Fab diluted in either pH 7.4 Binding Buffer (50 mM sodium phosphate+150 mM NaCl+0.5% BSA+0.05% Tween-20, pH 7.4) or pH 6.0 Binding Buffer (50 mM sodium phosphate+150 mM NaCl+0.5% BSA+0.05% Tween-20, pH 6.0) was captured for 1 hour. After capture, wells were washed with either pH 7.4 Binding Buffer or pH 6.0 Binding Buffer, followed by additional 5-minute incubation with the appropriate pH Binding Buffer. Detection was performed with HRP conjugated goat anti-mouse IgG H+L (Southern Biotech.) for 1 hour at 1/2000 dilution in PBS-T+0.5% BSA followed by TMB (3-minute development) with acid stop. […] Data is expressed as mean+SD. All ELISA steps were performed at room temperature.
What is called EC50 (read off the curve) is the midpoint of the concentration-response curve. B6: the “EC50 (read off the curve)” value was ~200 nM.

In another assay the target is T3, anti-mouse CTLA-4 antibody (clone 9D9).
T3 construct: also called 9D9 antibody; anti-CTLA4
Briefly: competition ELISA: 0.3 nM anti-CTLA Ab / 30 min with peptide, then on mouse CTLA-4 (Example 11).
Method: (§1) Following this incubation the peptide-antibody complexes were transferred to mouse CTLA-4 coated and blocked ELISA plates and incubated further. Following a brief binding period the plates were washed and target bound antibody was detected by either anti-mouse Fc or anti-mouse kappa chain HRP conjugated antibodies using standard TMB-based chromogenic ELISA procedures. The effects of competition were determined by standard IC50 analysis.
In the case of B2, the binding result is on record as “no binding (tested: 50 uM)”.

For a further assay, the target named is T2, PD-L1 antibody. Briefly: dissociation ELISA: PD-L1 antibody dilution series on immobilised biotinylated peptide, incubation at pH 5.4.
Broadly, the EC50 is the concentration needed to bring the measured effect to its halfway point. Low readings indicate greater potency, high ones weaker potency. For B1, the response was half-maximal at 0.84 nM (EC50).

The molecule B2 showed an EC50 of 3.9 nM.

The molecule B3 yielded an EC50 of 0.35 nM.

In turn, B4 showed an EC50 of 1.3 nM.

With B5, the EC50 is 1.5 nM.

The target of a further assay is T2, PD-L1 antibody. Briefly: dissociation ELISA: PD-L1 antibody dilution series on immobilised biotinylated peptide, incubation at pH 6.0.
Consider B1, for which the response was half-maximal at 0.21 nM (EC50).

Consider B2, for which the EC50 amounted to 1.3 nM.

As to B3, it took 0.07 nM to reach a half-maximal effect (EC50).

Regarding B4, a half-maximal effect (EC50) was put at 0.56 nM.

As for B5, a half-maximal response (EC50) required 0.49 nM.

Another assay has as its target T2, PD-L1 antibody. In words: dissociation ELISA: PD-L1 antibody dilution series on immobilised biotinylated peptide, incubation at pH 7.2.
Molecule B1 returned an EC50 of 0.13 nM.

In turn, B2 had an EC50 of 0.3 nM.

B3 came in with a concentration giving a half-maximal response (EC50) of 0.045 nM.

In turn, B4 yielded an EC50 of 0.2 nM.

For the molecule B5, the EC50 was determined as 0.23 nM.

For another assay, the target named is T3, anti-mouse CTLA-4 antibody (clone 9D9). Briefly: competition ELISA: 0.3 nM anti-CTLA Ab / 30 min with peptide, then on mouse CTLA-4 (Example 11); competitor mouse CTLA-4.
Method: as §1
In the case of B7, the binding result is “binds”.

With B8, the binding result is “binds”.
